Article PMC7846742

Target: His6-OAZ-GSY-SPM-Ctag (human | Neisseria meningitidis serogroup B (strain MC58)) (UniProt Q9JYV5)
Assay: cross-linking; NeissLock: Ca2+-induced aspartic anhydride on OAZ reacts with the docked partner; purified proteins mixed at 10 µM each or as indicated (AZI 2.5 µM each; Fig. 4b 0.5 µM each; 30 µM ODC with 10 µM OAZ-Y-SPM), 37 °C, HBS pH 7.4 with 2 mM TCEP, 10 mM CaCl2 unless varied (pH 6.5-8.5, 0.5-10 mM Ca2+, TBS, lyophilised probe); SDS-PAGE with Coomassie, intact ESI-MS, tryptic LC-MS/MS

Chain of His6-AZI-Ctag (human Antizyme Inhibitor) (O14977 whole entry): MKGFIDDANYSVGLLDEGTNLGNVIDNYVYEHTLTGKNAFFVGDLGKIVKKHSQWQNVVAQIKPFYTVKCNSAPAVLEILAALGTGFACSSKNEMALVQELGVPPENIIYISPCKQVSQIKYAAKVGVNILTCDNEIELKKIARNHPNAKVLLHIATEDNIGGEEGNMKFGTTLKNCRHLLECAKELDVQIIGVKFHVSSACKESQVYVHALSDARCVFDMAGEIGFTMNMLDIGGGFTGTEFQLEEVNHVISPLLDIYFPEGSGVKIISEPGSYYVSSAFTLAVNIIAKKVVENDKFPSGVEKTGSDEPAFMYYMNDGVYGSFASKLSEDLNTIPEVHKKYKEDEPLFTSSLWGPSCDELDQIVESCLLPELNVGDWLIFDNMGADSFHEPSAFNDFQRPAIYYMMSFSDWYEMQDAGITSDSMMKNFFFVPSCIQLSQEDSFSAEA

His6-AZI-Ctag (human Antizyme Inhibitor) (from UniProt O14977 1-448) (natural protein)
coupling yield: 80% | percent of AZI conjugated within 10 min: > 50%
